Experimental data: patent US20130157953A1, “TREATMENT OF CARDIAC CONDITIONS” (Zealand Pharma A/S, priority 2010, published 2013)
Numbered stars: 1 amine (or outer) side, 2 acyl side, 3 side chain; on linkers, the order of the positions; unused ones are H or OH. Bridge positions count the residues as written; N and C are the ends. Square brackets hold non-standard residues; d marks the D form. Side chains are listed from the residue outwards. * marks the point of attachment. γGlu = O=C(O)[C@H](CCC(=O)[*:2])N[*:1]; Palmitoyl = CCCCCCCCCCCCCCCC(=O)*; Aib = CC(C)(N)C(=O)O

B1: Compound 205 (peptide)
peptide: H-HSQGTFTSDYSKYLDSKAAHDFVEWLLK([γGlu-Palmitoyl])A-NH2
SMILES: CCCCCCCCCCCCCCCC(=O)N[C@@H](CCC(=O)NCCCC[C@H](NC(=O)[C@H](CC(C)C)NC(=O)[C@H](CC(C)C)NC(=O)[C@H](Cc1c[nH]c2ccccc12)NC(=O)[C@H](CCC(=O)O)NC(=O)[C@@H](NC(=O)[C@H](Cc1ccccc1)NC(=O)[C@H](CC(=O)O)NC(=O)[C@H](Cc1c[nH]cn1)NC(=O)[C@H](C)NC(=O)[C@H](C)NC(=O)[C@H](CCCCN)NC(=O)[C@H](CO)NC(=O)[C@H](CC(=O)O)NC(=O)[C@H](CC(C)C)NC(=O)[C@H](Cc1ccc(O)cc1)NC(=O)[C@H](CCCCN)NC(=O)[C@H](CO)NC(=O)[C@H](Cc1ccc(O)cc1)NC(=O)[C@H](CC(=O)O)NC(=O)[C@H](CO)NC(=O)[C@@H](NC(=O)[C@H](Cc1ccccc1)NC(=O)[C@@H](NC(=O)CNC(=O)[C@H](CCC(N)=O)NC(=O)[C@H](CO)NC(=O)[C@@H](N)Cc1c[nH]cn1)[C@@H](C)O)[C@@H](C)O)C(C)C)C(=O)N[C@@H](C)C(N)=O)C(=O)O
B2: Compound 257 (peptide)
peptide: H-HSQGTFTSDYSKYLDKRRAEDFVWLMNT-NH2
modifications: lactam 16-20
SMILES: CSCC[C@H](NC(=O)[C@H](CC(C)C)NC(=O)[C@H](Cc1c[nH]c2ccccc12)NC(=O)[C@@H](NC(=O)[C@H](Cc1ccccc1)NC(=O)[C@H](CC(=O)O)NC(=O)[C@@H]1CCC(=O)NCCCC[C@H](NC(=O)[C@H](CC(=O)O)NC(=O)[C@H](CC(C)C)NC(=O)[C@H](Cc2ccc(O)cc2)NC(=O)[C@H](CCCCN)NC(=O)[C@H](CO)NC(=O)[C@H](Cc2ccc(O)cc2)NC(=O)[C@H](CC(=O)O)NC(=O)[C@H](CO)NC(=O)[C@@H](NC(=O)[C@H](Cc2ccccc2)NC(=O)[C@@H](NC(=O)CNC(=O)[C@H](CCC(N)=O)NC(=O)[C@H](CO)NC(=O)[C@@H](N)Cc2c[nH]cn2)[C@@H](C)O)[C@@H](C)O)C(=O)N[C@@H](CCCNC(=N)N)C(=O)N[C@@H](CCCNC(=N)N)C(=O)N[C@@H](C)C(=O)N1)C(C)C)C(=O)N[C@@H](CC(N)=O)C(=O)N[C@H](C(N)=O)[C@@H](C)O
B3: Compound 263 (peptide)
peptide: H-H[Aib]QGTFTSDYSKYLDEK([γGlu-Palmitoyl])RAKDFIEWLLSA-NH2
SMILES: CCCCCCCCCCCCCCCC(=O)N[C@@H](CCC(=O)NCCCC[C@H](NC(=O)[C@H](CCC(=O)O)NC(=O)[C@H](CC(=O)O)NC(=O)[C@H](CC(C)C)NC(=O)[C@H](Cc1ccc(O)cc1)NC(=O)[C@H](CCCCN)NC(=O)[C@H](CO)NC(=O)[C@H](Cc1ccc(O)cc1)NC(=O)[C@H](CC(=O)O)NC(=O)[C@H](CO)NC(=O)[C@@H](NC(=O)[C@H](Cc1ccccc1)NC(=O)[C@@H](NC(=O)CNC(=O)[C@H](CCC(N)=O)NC(=O)C(C)(C)NC(=O)[C@@H](N)Cc1c[nH]cn1)[C@@H](C)O)[C@@H](C)O)C(=O)N[C@@H](CCCNC(=N)N)C(=O)N[C@@H](C)C(=O)N[C@@H](CCCCN)C(=O)N[C@@H](CC(=O)O)C(=O)N[C@@H](Cc1ccccc1)C(=O)N[C@H](C(=O)N[C@@H](CCC(=O)O)C(=O)N[C@@H](Cc1c[nH]c2ccccc12)C(=O)N[C@@H](CC(C)C)C(=O)N[C@@H](CC(C)C)C(=O)N[C@@H](CO)C(=O)N[C@@H](C)C(N)=O)[C@@H](C)CC)C(=O)O
B4: Compound 204 (peptide)
peptide: H-HSQGTFTSDYSKYLDSKAAK([γGlu-Palmitoyl])DFVEWLLRA-NH2
SMILES: CCCCCCCCCCCCCCCC(=O)N[C@@H](CCC(=O)NCCCC[C@H](NC(=O)[C@H](C)NC(=O)[C@H](C)NC(=O)[C@H](CCCCN)NC(=O)[C@H](CO)NC(=O)[C@H](CC(=O)O)NC(=O)[C@H](CC(C)C)NC(=O)[C@H](Cc1ccc(O)cc1)NC(=O)[C@H](CCCCN)NC(=O)[C@H](CO)NC(=O)[C@H](Cc1ccc(O)cc1)NC(=O)[C@H](CC(=O)O)NC(=O)[C@H](CO)NC(=O)[C@@H](NC(=O)[C@H](Cc1ccccc1)NC(=O)[C@@H](NC(=O)CNC(=O)[C@H](CCC(N)=O)NC(=O)[C@H](CO)NC(=O)[C@@H](N)Cc1c[nH]cn1)[C@@H](C)O)[C@@H](C)O)C(=O)N[C@@H](CC(=O)O)C(=O)N[C@@H](Cc1ccccc1)C(=O)N[C@H](C(=O)N[C@@H](CCC(=O)O)C(=O)N[C@@H](Cc1c[nH]c2ccccc12)C(=O)N[C@@H](CC(C)C)C(=O)N[C@@H](CC(C)C)C(=O)N[C@@H](CCCNC(=N)N)C(=O)N[C@@H](C)C(N)=O)C(C)C)C(=O)O

What follows are binders tested against human glucagon-like peptide 1 receptor (GLP-1R) (human, UniProt P43220 24-463) (assay: cell-based or functional assay).

Row | EC50 (nM) GLP-1R; cAMP content, HEK293 cells expressing human GLP-1R [nM] | Binder
1 | 0.5 | H-HSQGTFTSDYSKYLDSRRAQDFVWLESA-NH2 [Compound 248]
2 | 0.3 | H-HSQGTFTSDYSKYLDSRAAQDFVWLMNT-NH2 [Compound 246]
3 | 0.2 | H-HSQGTFTSDYSRYLDSRRAQDFVWLLNT-NH2 [Compound 253]
4 | 0.2 | H-HSQGTFTSDYSRYLDSRRAQDFVWLLNK-NH2 [Compound 254]
5 | 0.24 | H-HSQGTFTSDYSKYLDSALAQDFVWLLNT-NH2 [Compound 255]
6 | 0.2 | H-HSQGTFTSDYSKYLDSRRAQDFVWLERA-NH2 [Compound 251]
7 | 0.3 | H-HSQGTFTSDYSKYLDSRRAQDFVWLKRA-NH2 [Compound 250]
8 | 0.09 | B1
9 | 0.5 | H-HSQGTFTSDYSKYLDSRHAQDFVWLMNT-NH2 [Compound 244]
10 | 0.3 | H-HSQGTFTSDYSKYLDSRYAQDFVWLMNT-NH2 [Compound 247]
11 | 0.5 | H-HSQGTFTSDYSRYLDSRRAKDFVWLLNT-NH2 [Compound 252]

Each binder was assayed against human glucagon receptor (Glucagon-R) (human, UniProt P47871 26-477) (assay: cell-based or functional assay).
human glucagon receptor (Glucagon-R), sequence (P47871 26-477): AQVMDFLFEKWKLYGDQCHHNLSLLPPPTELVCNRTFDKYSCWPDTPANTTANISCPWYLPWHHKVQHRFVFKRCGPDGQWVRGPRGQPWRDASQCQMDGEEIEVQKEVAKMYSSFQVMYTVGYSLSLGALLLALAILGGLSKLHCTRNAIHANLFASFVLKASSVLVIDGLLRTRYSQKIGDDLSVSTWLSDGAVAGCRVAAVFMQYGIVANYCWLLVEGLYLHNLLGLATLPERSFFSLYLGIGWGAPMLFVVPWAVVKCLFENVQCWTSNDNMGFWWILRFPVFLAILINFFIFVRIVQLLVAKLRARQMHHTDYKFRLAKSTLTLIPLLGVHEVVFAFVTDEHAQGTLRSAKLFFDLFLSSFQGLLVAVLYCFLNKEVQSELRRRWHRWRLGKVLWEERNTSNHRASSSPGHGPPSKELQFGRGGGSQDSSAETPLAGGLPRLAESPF

Row | EC50 (nM) GuR; cAMP content, HEK293 cells expressing the human glucagon receptor [nM] | Binder
12 | 0.05 | H-HSQGTFTSDYSKYLDSRAAQDFVWLMNT-NH2 [Compound 246]
13 | 0.2 | H-HSQGTFTSDYSRYLDSRRAQDFVWLLNK-NH2 [Compound 254]
14 | 0.09 | B2
15 | 1.87 | H-H[Aib]QGTFTSDYSKYLDSK([3‑aminopropanoyl-Palmitoyl])AAHDFVEWLLSA-NH2 [Compound 215]
16 | 0.06 | H-HSQGTFTSDYSKYLDSERAQDFVWLMNT-NH2 [Compound 243]
17 | 0.16 | B3
18 | 0.05 | H-HSQGTFTSDYSKYLDSRHAQDFVWLMNT-NH2 [Compound 244]
19 | 0.04 | B4
20 | 0.05 | H-HSQGTFTSDYSKYLDSRSAQDFVWLMNT-NH2 [Compound 245]
21 | 0.3 | H-HSQGTFTSDYSRYLDSRRAKDFVWLLNT-NH2 [Compound 252]
